Assay results reported in US20160272691A1, “COMPOSITIONS AND METHODS FOR TREATING CONDITIONS ASSOCIATED WITH y-HERPESVIRUSES” (NDSU RESEARCH FOUNDATION, priority 2013, published 2016).

T1: γHV68 M11 residues 1-136 (murine γHV68), P89884
T1 chain: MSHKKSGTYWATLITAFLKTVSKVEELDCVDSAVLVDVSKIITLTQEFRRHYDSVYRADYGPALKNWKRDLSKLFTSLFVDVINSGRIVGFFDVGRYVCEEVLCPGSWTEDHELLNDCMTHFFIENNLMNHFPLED

T2: His6-tagged Bcl-XL (residues 1-208, N52D, N66D) (human), Q07817
T2 chain: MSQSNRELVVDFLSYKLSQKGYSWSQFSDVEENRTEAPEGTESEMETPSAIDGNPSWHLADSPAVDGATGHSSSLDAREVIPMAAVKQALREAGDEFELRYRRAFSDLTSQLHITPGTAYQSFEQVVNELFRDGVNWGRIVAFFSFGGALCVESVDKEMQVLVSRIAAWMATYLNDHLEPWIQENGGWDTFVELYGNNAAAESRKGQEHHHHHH


Columns and labels:
[1] = target: T1, γHV68 M11 residues 1-136 (murine …); test: ITC
[2] = target: T1, γHV68 M11 residues 1-136 (murine …); test: ITC, 25 °C
[3] = target: T2, His6-tagged Bcl-XL (residues 1-208, …); test: ITC, 25 °C
[4] = target: T1, γHV68 M11 residues 1-136 (murine …); test: ITC (Table 4; quantity and unit in Table 1)
[5] = target: T2, His6-tagged Bcl-XL (residues 1-208, …); test: ITC (Table 4; quantity and unit in Table 1)
[6] = target: T2, His6-tagged Bcl-XL (residues 1-208, …); test: ITC
Bcl-2, P10415 [7] = test: ITC (Table 4; quantity and unit in Table 1)
Bcl-2, P10415 [8] = test: not stated in the sentence (ITC implied)
KSHV Bcl-2 (KSHV) = test: not stated in the sentence (ITC implied)

Chain of Bcl-2, P10415 (P10415 1-211 limits assumed): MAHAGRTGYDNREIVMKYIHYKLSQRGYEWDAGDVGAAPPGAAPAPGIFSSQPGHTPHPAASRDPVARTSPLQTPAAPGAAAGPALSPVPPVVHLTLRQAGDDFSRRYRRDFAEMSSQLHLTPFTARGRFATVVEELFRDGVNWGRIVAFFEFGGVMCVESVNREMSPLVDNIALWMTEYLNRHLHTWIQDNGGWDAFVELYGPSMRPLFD

Row | Binder | Kd [2] [µM] | ΔG [2] [kcal/mol] | ΔH [2] [kcal/mol] | ΔS [2] [J/K · mol] | Kd [3] [µM] | ΔG [3] [kcal/mol] | ΔH [3] [kcal/mol] | ΔS [3] [J/K · mol] | Kd [4] [µM] | Kd [5] [µM] | also measured
1 | GSGTMENASRRLKVTGDLFDIMSGQT (modifications not checked) [Beclin 1 BH3D-derived peptide L112A] | 4.33 | -7.32 | -11.3 | -56.1 | 110 | -5.4 | -10.1 | -66.3 | 4.3 | 110 | fold reduction of binding versus WT BH3D [1]: 3 fold
2 | GSGTMENLSRRLAVTGDLFDIMSGQT (modifications not checked) [Beclin 1 BH3D-derived peptide K117A] | 0.66 | -8.44 | -16.5 | -113 | 18.9 | -6.45 | -9 | -35.8 | 0.7 | 18.9 | fold improvement of binding versus WT BH3D [1]: 2 fold; fold weakening of binding versus WT BH3D [6]: 10 fold; Kd (Bcl-2, P10415 [7]): 24.5 µM
3 | GSGTMENLSRRLKVTEDLFDIMSGQT (modifications not checked) [Beclin 1 BH3D-derived peptide G120E] | 36.5 | -6.06 | -12.5 | -90 |  |  |  |  | 36.5 |  | fold reduction of binding affinity versus WT BH3D [1]: 26 fold
4 | GSGTMENLSRRLKVTGDLFDIMSGQT (modifications not checked) [Beclin 1 BH3D peptide, wild type] | 1.38 | -8.01 | -17 | -126 | 1.95 | -7.79 | -10.4 | -36.9 | 1.4 | 1.9 | fold difference in TΔSapp versus binding to Bcl-XL [1]: 4 fold; fold difference in ΔHapp versus binding to Bcl-XL [1]: 2 fold; Kd (Bcl-2, P10415 [8]): 9 µM; Kd (KSHV Bcl-2 (KSHV)): 54 µM; Kd (Bcl-2, P10415 [7]): 10.4 µM
5 | GSGTMENLSRRLKVTGDLADIMSGQT (modifications not checked) [Beclin 1 BH3D-derived peptide F123A] | 5.2 | -7.22 | -14.2 | -97.8 | 408 | -4.63 | -7.34 | -38 | 5.2 | 408 | fold weakening of binding versus WT BH3D [1]: 4 fold; fold weakening of binding versus WT BH3D [6]: 10 fold
6 | GSGTMENLSRRLKVTGALFDIMSGQT (modifications not checked) [Beclin 1 BH3D-derived peptide D121A] |  |  |  |  |  |  |  |  | 1.3 |  | 
7 | GSGTMENLSRRAKVTGDLFDIMSGQT (modifications not checked) [Beclin 1 BH3D-derived peptide L116A] | 178 | -5.11 | -8.7 | -50.3 |  |  |  |  | 178 |  | fold reduction of binding affinity versus WT BH3D [1]: > 70 fold
8 | GSGTMENLSRRLKVTEALFDIMSGQT (modifications not checked) [Beclin 1 BH3D-derived G120E+D121A double mutant peptide] | 6.43 | -7.08 | -14.9 | -110 |  |  |  |  | 6.4 |  | fold better affinity versus the G120E peptide [1]: 5.7 fold; fold weaker affinity versus WT BH3D [1]: 4.7 fold
